In the experiment the target is human complement Factor H (human) (UniProt P08603). Kind of experiment: SPR; Biacore X100 Plus; human FH captured by immobilised anti-FH mAb (Q254) on CM5; refolded NspA as analyte, five 3.16-fold dilutions from 10 µM, single-cycle kinetics; 10 mM HEPES, 150 mM NaCl, 3 mM EDTA, 0.005% P-20, pH 7.4; 1:1 model; apparent KD.

Broadly, the koff is the first-order rate constant of dissociation. One may read the kon as a measure of how fast the partners come together.

UniProt P08603, sequence (P08603 19-1231): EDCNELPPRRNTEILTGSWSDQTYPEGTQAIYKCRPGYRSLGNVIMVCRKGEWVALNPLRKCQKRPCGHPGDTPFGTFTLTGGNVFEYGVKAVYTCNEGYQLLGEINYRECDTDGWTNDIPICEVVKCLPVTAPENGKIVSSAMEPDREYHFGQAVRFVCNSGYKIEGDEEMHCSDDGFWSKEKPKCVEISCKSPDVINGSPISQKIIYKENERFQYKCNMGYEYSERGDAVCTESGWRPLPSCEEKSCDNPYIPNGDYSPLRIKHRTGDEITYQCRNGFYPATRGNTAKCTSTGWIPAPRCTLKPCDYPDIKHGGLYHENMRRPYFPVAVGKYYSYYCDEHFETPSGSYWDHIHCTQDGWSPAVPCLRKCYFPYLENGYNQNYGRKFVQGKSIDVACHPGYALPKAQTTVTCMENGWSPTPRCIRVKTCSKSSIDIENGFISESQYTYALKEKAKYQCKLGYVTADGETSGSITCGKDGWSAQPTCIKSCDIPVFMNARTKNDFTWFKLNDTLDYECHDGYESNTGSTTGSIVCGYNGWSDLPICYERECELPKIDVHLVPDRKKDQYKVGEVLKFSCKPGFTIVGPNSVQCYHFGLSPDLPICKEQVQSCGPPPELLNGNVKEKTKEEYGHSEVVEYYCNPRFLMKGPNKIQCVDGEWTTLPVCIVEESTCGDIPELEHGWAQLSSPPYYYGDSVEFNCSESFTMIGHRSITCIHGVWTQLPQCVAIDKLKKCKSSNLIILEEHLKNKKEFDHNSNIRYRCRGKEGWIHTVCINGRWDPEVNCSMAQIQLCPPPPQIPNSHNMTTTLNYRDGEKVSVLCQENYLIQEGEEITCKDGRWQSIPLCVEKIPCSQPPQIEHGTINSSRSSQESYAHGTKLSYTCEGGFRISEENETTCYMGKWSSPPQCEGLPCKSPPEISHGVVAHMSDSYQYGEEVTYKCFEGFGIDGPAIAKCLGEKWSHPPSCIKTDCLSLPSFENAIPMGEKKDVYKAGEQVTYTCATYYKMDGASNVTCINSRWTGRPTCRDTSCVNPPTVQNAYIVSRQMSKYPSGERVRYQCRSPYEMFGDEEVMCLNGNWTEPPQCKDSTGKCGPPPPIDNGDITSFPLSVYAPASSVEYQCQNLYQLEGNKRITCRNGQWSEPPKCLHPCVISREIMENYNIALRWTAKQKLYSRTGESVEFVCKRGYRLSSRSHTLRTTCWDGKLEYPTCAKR

Regarding “purified, refolded NspA from N. meningitidis strain 8047, wild type, without signal sequence (natural protein)”, the Kd came to 24.8 nM, the off-rate constant (koff) was determined as 0.000608 s⁻¹ and the on-rate constant (kon) came to 25100 M⁻¹ s⁻¹.

The values are drawn from paper PMC11895441.
